Experimental data as given in US20150344570A1 (published 2015).

T1: FcγRIIb extracellular domain with C-terminal His tag (human, UniProt P31994 43-217)
T1 construct: extracellular domain; also called FcgRIIb; 2b; not shown: His tag at the C terminus
T1 sequence (looked up): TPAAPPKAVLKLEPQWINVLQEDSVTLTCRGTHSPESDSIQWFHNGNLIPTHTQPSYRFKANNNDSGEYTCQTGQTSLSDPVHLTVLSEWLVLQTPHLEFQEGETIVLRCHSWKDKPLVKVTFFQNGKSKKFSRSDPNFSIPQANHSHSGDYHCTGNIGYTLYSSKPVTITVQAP

B1: GpH7-A5/GpH7-B3 variant H268_09D/GpL16-k0 (antibody, human IgG1, kappa)
heavy 1: not shown
heavy 2: not shown
light: DIVMTQSPLSLPVTPGEPASISCQASESLVHSNRNTYLHWYLQKPGQSPQLLIYKVSNRFSGVPDRFSGSGSGTDFTLKISRVEAEDVGVYYCSQNTHVPPTFGQGTKVEIERTVAAPSVFIFPPSDEQLKSGTASVVCLLNNFYPREAKVQWKVDNALQSGNSQESVTEQDSKDSTYSLSSTLTLSKADYEKHKVYACEVTHQGLSSPVTKSFNRGEC
notes: also called He Ab H268_09D
B2: GpH7-A5/GpH7-B3 variant P331_16H/GpL16-k0 (antibody, human IgG1, kappa)
heavy 1: not shown
heavy 2: not shown
light: B1 light
notes: also called He Ab P331_16H
B3: GpH7-A5/GpH7-B3 variant K326_06M/GpL16-k0 (antibody, human IgG1, kappa)
heavy 1: not shown
heavy 2: not shown
light: B1 light
notes: also called He Ab K326_06M
B4: GpH7-A5/GpH7-B3 variant K326_08L/GpL16-k0 (antibody, human IgG1, kappa)
heavy 1: not shown
heavy 2: not shown
light: B1 light
notes: also called He Ab K326_08L
B5: GpH7-A5/GpH7-B3 variant H268_10E/GpL16-k0 (antibody, human IgG1, kappa)
heavy 1: not shown
heavy 2: not shown
light: B1 light
notes: also called He Ab H268_10E
B6: GpH7-A5/GpH7-B3 variant H268_13S/GpL16-k0 (antibody, human IgG1, kappa)
heavy 1: not shown
heavy 2: not shown
light: B1 light
notes: also called He Ab H268_13S
B7: GpH7-A5/GpH7-B3 variant K326_04F/GpL16-k0 (antibody, human IgG1, kappa)
heavy 1: not shown
heavy 2: not shown
light: B1 light
notes: also called He Ab K326_04F
B8: GpH7-A5/GpH7-B3 variant K326_03V/GpL16-k0 (antibody, human IgG1, kappa)
heavy 1: not shown
heavy 2: not shown
light: B1 light
notes: also called He Ab K326_03V
B9: GpH7-A5/GpH7-B3 variant I332_06M/GpL16-k0 (antibody, human IgG1, kappa)
heavy 1: not shown
heavy 2: not shown
light: B1 light
notes: also called He Ab I332_06M
B10: GpH7-A5/GpH7-B3 variant I332_09D/GpL16-k0 (antibody, human IgG1, kappa)
heavy 1: not shown
heavy 2: not shown
light: B1 light
notes: also called He Ab I332_09D
B11: GpH7-A5/GpH7-B3 variant P238_15Y/GpL16-k0 (antibody, human IgG1, kappa)
heavy 1: not shown
heavy 2: not shown
light: B1 light
notes: also called He Ab P238_15Y
B12: GpH7-A5/GpH7-B3 variant K326_14T/GpL16-k0 (antibody, human IgG1, kappa)
heavy 1: not shown
heavy 2: not shown
light: B1 light
notes: also called He Ab K326_14T
B13: GpH7-A5/GpH7-B3 variant K334_05P/GpL16-k0 (antibody, human IgG1, kappa)
heavy 1: not shown
heavy 2: not shown
light: B1 light
notes: also called He Ab K334_05P
B14: GpH7-A5/GpH7-B3 variant K326_09D/GpL16-k0 (antibody, human IgG1, kappa)
heavy 1: not shown
heavy 2: not shown
light: B1 light
notes: also called He Ab K326_09D
B15: GpH7-A5/GpH7-B3 variant I332_14T/GpL16-k0 (antibody, human IgG1, kappa)
heavy 1: not shown
heavy 2: not shown
light: B1 light
notes: also called He Ab I332_14T
B16: GpH7-A5/GpH7-B3 variant L235_20W/GpL16-k0 (antibody, human IgG1, kappa)
heavy 1: not shown
heavy 2: not shown
light: B1 light
notes: also called He Ab L235_20W
B17: GpH7-A5/GpH7-B3 variant P238_09D/GpL16-k0 (antibody, human IgG1, kappa)
heavy 1: not shown
heavy 2: not shown
light: B1 light
notes: also called He Ab P238_09D
B18: GpH7-A5/GpH7-B3 variant L328_13S/GpL16-k0 (antibody, human IgG1, kappa)
heavy 1: not shown
heavy 2: not shown
light: B1 light
notes: also called He Ab L328_13S
B19: GpH7-A5/GpH7-B3 variant S239_03V/GpL16-k0 (antibody, human IgG1, kappa)
heavy 1: not shown
heavy 2: not shown
light: B1 light
notes: also called He Ab S239_03V
B20: GpH7-A5/GpH7-B3 variant S239_10E/GpL16-k0 (antibody, human IgG1, kappa)
heavy 1: not shown
heavy 2: not shown
light: B1 light
notes: also called He Ab S239_10E
B21: GpH7-A5/GpH7-B3 variant L328_02A/GpL16-k0 (antibody, human IgG1, kappa)
heavy 1: not shown
heavy 2: not shown
light: B1 light
notes: also called He Ab L328_02A
B22: GpH7-A5/GpH7-B3 variant K334_08L/GpL16-k0 (antibody, human IgG1, kappa)
heavy 1: not shown
heavy 2: not shown
light: B1 light
notes: also called He Ab K334_08L
B23: GpH7-A5/GpH7-B3 variant K326_16H/GpL16-k0 (antibody, human IgG1, kappa)
heavy 1: not shown
heavy 2: not shown
light: B1 light
notes: also called He Ab K326_16H
B24: GpH7-A5/GpH7-B3 variant K326_20W/GpL16-k0 (antibody, human IgG1, kappa)
heavy 1: not shown
heavy 2: not shown
light: B1 light
notes: also called He Ab K326_20W
B25: GpH7-A5/GpH7-B3 variant S267_19Q/GpL16-k0 (antibody, human IgG1, kappa)
heavy 1: not shown
heavy 2: not shown
light: B1 light
notes: also called He Ab S267_19Q
B26: GpH7-A5/GpH7-B3 variant K334_13S/GpL16-k0 (antibody, human IgG1, kappa)
heavy 1: not shown
heavy 2: not shown
light: B1 light
notes: also called He Ab K334_13S
B27: GpH7-A5/GpH7-B3 variant K326_19Q/GpL16-k0 (antibody, human IgG1, kappa)
heavy 1: not shown
heavy 2: not shown
light: B1 light
notes: also called He Ab K326_19Q
B28: GpH7-A5/GpH7-B3 variant P331_15Y/GpL16-k0 (antibody, human IgG1, kappa)
heavy 1: not shown
heavy 2: not shown
light: B1 light
notes: also called He Ab P331_15Y
B29: GpH7-A5/GpH7-B3 variant K334_03V/GpL16-k0 (antibody, human IgG1, kappa)
heavy 1: not shown
heavy 2: not shown
light: B1 light
notes: also called He Ab K334_03V
B30: GpH7-A5/GpH7-B3 variant H268_18N/GpL16-k0 (antibody, human IgG1, kappa)
heavy 1: not shown
heavy 2: not shown
light: B1 light
notes: also called He Ab H268_18N
B31: GpH7-A5/GpH7-B3 variant I332_10E/GpL16-k0 (antibody, human IgG1, kappa)
heavy 1: not shown
heavy 2: not shown
light: B1 light
notes: also called He Ab I332_10E
B32: GpH7-A5/GpH7-B3 variant P331_20W/GpL16-k0 (antibody, human IgG1, kappa)
heavy 1: not shown
heavy 2: not shown
light: B1 light
notes: also called He Ab P331_20W
B33: GpH7-A5/GpH7-B3 variant K334_07I/GpL16-k0 (antibody, human IgG1, kappa)
heavy 1: not shown
heavy 2: not shown
light: B1 light
notes: also called He Ab K334_07I
B34: GpH7-A5/GpH7-B3 variant S267_06M/GpL16-k0 (antibody, human IgG1, kappa)
heavy 1: not shown
heavy 2: not shown
light: B1 light
notes: also called He Ab S267_06M
B35: GpH7-A5/GpH7-B3 variant I332_04F/GpL16-k0 (antibody, human IgG1, kappa)
heavy 1: not shown
heavy 2: not shown
light: B1 light
notes: also called He Ab I332_04F
B36: GpH7-A5/GpH7-B3 variant K334_10E/GpL16-k0 (antibody, human IgG1, kappa)
heavy 1: not shown
heavy 2: not shown
light: B1 light
notes: also called He Ab K334_10E
B37: GpH7-A5/GpH7-B3 variant I336_08L/GpL16-k0 (antibody, human IgG1, kappa)
heavy 1: not shown
heavy 2: not shown
light: B1 light
notes: also called He Ab I336_08L
B38: GpH7-A5/GpH7-B3 variant P238_04F/GpL16-k0 (antibody, human IgG1, kappa)
heavy 1: not shown
heavy 2: not shown
light: B1 light
notes: also called He Ab P238_04F
B39: GpH7-A5/GpH7-B3 variant I332_15Y/GpL16-k0 (antibody, human IgG1, kappa)
heavy 1: not shown
heavy 2: not shown
light: B1 light
notes: also called He Ab I332_15Y
B40: GpH7-A5/GpH7-B3 variant K326_10E/GpL16-k0 (antibody, human IgG1, kappa)
heavy 1: not shown
heavy 2: not shown
light: B1 light
notes: also called He Ab K326_10E
B41: GpH7-A5/GpH7-B3 variant K334_04F/GpL16-k0 (antibody, human IgG1, kappa)
heavy 1: not shown
heavy 2: not shown
light: B1 light
notes: also called He Ab K334_04F
B42: GpH7-A5/GpH7-B3 variant K326_15Y/GpL16-k0 (antibody, human IgG1, kappa)
heavy 1: not shown
heavy 2: not shown
light: B1 light
notes: also called He Ab K326_15Y
B43: GpH7-A5/GpH7-B3 variant K334_02A/GpL16-k0 (antibody, human IgG1, kappa)
heavy 1: not shown
heavy 2: not shown
light: B1 light
notes: also called He Ab K334_02A
B44: GpH7-A5/GpH7-B3 variant K334_14T/GpL16-k0 (antibody, human IgG1, kappa)
heavy 1: not shown
heavy 2: not shown
light: B1 light
notes: also called He Ab K334_14T

Molecular target: T1, FcγRIIb extracellular domain with …
Assay: SPR, relative binding, HeCon Ab = 100
Experimental: Analysis of interaction between objective antibody and the FcγR was carried out using Biacore T100 (GE Healthcare). HBS-EP+ (GE Healthcare) was used as the running buffer, and the measurement temperature was set to 25° C. Chips produced by immobilizing the antigen peptide by the amine coupling method to a Series S Sencor Chip CM5 (GE Healthcare), or alternatively, chips produced by allowing preliminarily biotinylated antigen peptides to interact with and immobilize onto a Series S Sensor Chip SA (certified) (GE Healthcare) were used. Antibodies of interest were captured onto an antigen peptide-immobilized chip, and allowed to interact to each FcγR diluted with running buffer. To regenerate and repeatedly use the chip, the antibodies captured on the chip were washed off by reacting 10 mM glycine-HCl, pH 1.5.

| Binder | He/Con_2b |
| --- | --- |
| B1 | 239 % of control |
| B2 | 116 % of control |
| B3 | 165 % of control |
| B4 | 177 % of control |
| B5 | 230 % of control |
| B6 | 160 % of control |
| B7 | 155 % of control |
| B8 | 175 % of control |
| B9 | 105 % of control |
| B10 | 147 % of control |
| B11 | 218 % of control |
| B12 | 150 % of control |
| B13 | 105 % of control |
| B14 | 193 % of control |
| B15 | 106 % of control |
| B16 | 147 % of control |
| B17 | 221 % of control |
| B18 | 149 % of control |
| B19 | 108 % of control |
| B20 | 181 % of control |
| B21 | 144 % of control |
| B22 | 106 % of control |

| Binder | He/Con_2b |
| --- | --- |
| B23 | 119 % of control |
| B24 | 148 % of control |
| B25 | 218 % of control |
| B26 | 111 % of control |
| B27 | 139 % of control |
| B28 | 114 % of control |
| B29 | 125 % of control |
| B30 | 156 % of control |
| B31 | 142 % of control |
| B32 | 111 % of control |
| B33 | 119 % of control |
| B34 | 210 % of control |
| B35 | 104 % of control |
| B36 | 114 % of control |
| B37 | 107 % of control |
| B38 | 312 % of control |
| B39 | 101 % of control |
| B40 | 200 % of control |
| B41 | 111 % of control |
| B42 | 159 % of control |
| B43 | 108 % of control |
| B44 | 115 % of control |
